In patent US20190240330A1 one finds Normalized mean fluorescence intensity and % internalized/100000 cells data, which are given here for three substances.

Assay [1] addresses human epidermal growth factor receptor 1 (EGFR1), on the surface of HSC-2 and FaDu tumor cells (human) (UniProt P00533). Kind of assay: flow cytometry, AlexaFluor488-labeled compound 5 ug/ml, 3 h at +37 C, FaDu cells; cell surface bound plus internalized, normalized to degree of labeling.
Assay [2] shares this target. Kind of assay: flow cytometry, AlexaFluor488-labeled compound 5 ug/ml, 3 h at +37 C, HSC-2 cells; cell surface bound plus internalized, normalized to degree of labeling.
Assay [3] has the same target. Kind of assay: tritium-labeled compound 5 ug/ml, 3 h at +37 C, FaDu cells, scintillation counting of cell lysate; internalized plus cell surface bound; mean +/- S.D. of three.

“Control-F(ab')2 (F(ab')2 fragment of omalizumab)”: the Normalized mean fluorescence intensity in assay [1] was 443; in assay [2], 823.
The like results for “Control-Fab (Fab fragment of omalizumab)” were, in that order, 970 and 1160.
As for “Control-mAb (omalizumab, anti-IgE) (antibody)”, in assay [2], the Normalized mean fluorescence intensity was 700. In assay [3], the % internalized/100000 cells is 0.01%.
